Source: paper PMC3695725
Read-outs that look alike come from different tables or passages of the source.

Experiments:
Assay in all cases: SPR
[1] = biological target: recombinant full length GST-TIMAP (wt), non-phosphorylated
[2] = biological target: double-thiophosphorylated GST-TIMAP (wt)
[3] = biological target: mono-thiophosphorylated GST-TIMAP (wt)
[4] = biological target: recombinant full length GST-TIMAP (wt), non-phosphorylated; remark: listed apart in the source

## recombinant PP1cβ (catalytic subunit of protein phosphatase 1, β isoform) (from UniProt P62140 1-327) (enzyme)
[1]
  Ka: 1.8e+06 M⁻¹
[2]
  Ka: 1.93e+06 M⁻¹
  koff: 0.000522 s⁻¹
  kon: 1010 M⁻¹ s⁻¹
[3]
  Ka: 7.39e+06 M⁻¹
  koff: 0.000556 s⁻¹
  kon: 4110 M⁻¹ s⁻¹
[4]
  Ka: 1.28e+06 M⁻¹
  koff: 0.00366 s⁻¹
  kon: 4680 M⁻¹ s⁻¹
